B2: IL-33 (residues 112-270) (ligand, UniProt O95760 112-270, looked up)
chain: SITGISPITEYLASLSTYNDQSITFALEDESYEIYVEDLKKDEKKDKVLLSYYESQHPSNESGDGVDGKMLMVTLSPTKDFWLHANNKEHSVELHKCEKPLPDQAFFVLHNMHSNCVSFECKTDPGVFIGVKDNHLALIKVDSSENLCTENILFKLSET
notes: Interleukin-33, residues 112-270; Used unlabelled as the analyte in BLI; source: E. coli Rosetta2 (DE3), purified (Ni-NTA, TEV cleavage, second Ni-NTA, Superdex 75); not shown: His6, N-terminal, cleaved

Where two headings read alike, the source gives them in different places.

One assay deals with IL-33 (Homo sapiens) (UniProt O95760). In words: ITC. The note with it: cited from earlier work.
Another assay has as its target IL-1α (Homo sapiens) (UniProt P01583). Conditions: cited from earlier work.
Another assay deals with IL-1Ra (Homo sapiens) (UniProt P18510). Conditions: cited from earlier work.
Chain of IL-1Ra (Homo sapiens) (P18510 26-177): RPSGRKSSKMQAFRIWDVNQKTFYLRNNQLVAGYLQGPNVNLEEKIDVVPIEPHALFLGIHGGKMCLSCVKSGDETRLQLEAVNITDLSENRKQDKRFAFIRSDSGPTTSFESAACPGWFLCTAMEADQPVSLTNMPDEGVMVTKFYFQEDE
Assay [1] deals with IL-1β (Homo sapiens) (UniProt P01584). The note with it: cited from earlier work.
Chain of IL-1β (Homo sapiens) (P01584 117-269): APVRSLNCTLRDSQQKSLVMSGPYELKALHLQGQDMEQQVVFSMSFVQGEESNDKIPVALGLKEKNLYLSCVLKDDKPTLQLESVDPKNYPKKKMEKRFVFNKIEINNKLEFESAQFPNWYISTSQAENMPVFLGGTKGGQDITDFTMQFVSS
For assay [2] the target is unchanged. The note with it: cited from earlier work. The source holds these as a separate data set.
The assay “IL-33 (residues 112-270)” concerns the target B2. In words: BLI; OctetRED96; biotinylated ST2 loaded on streptavidin sensors (20 ug/mL, 10 min), serial dilutions of IL-33 in solution; 25 C; 10 mM HEPES pH 7.5, 150 mM NaCl, 0.005% Tween 20, 100 uM EDTA; 1:1 binding model, KD calculated from kon and koff. Conditions: both partners purified.
The target of assay [3] is ST2 D1-D2 domain (sequence 19-206) (UniProt Q01638 19-206, biotinylated with Biotin-PEO4 linker (equimolar ratio)). The assay is described as above. The note with it: both partners purified.

We go through 5 molecules from publication PMC4703388, “Conformational Sampling and Binding Site Assessment of Suppression of Tumorigenicity 2 Ectodomain” (PLoS ONE, 2016).

Chain of IL-1α (Homo sapiens) (P01583 113-271): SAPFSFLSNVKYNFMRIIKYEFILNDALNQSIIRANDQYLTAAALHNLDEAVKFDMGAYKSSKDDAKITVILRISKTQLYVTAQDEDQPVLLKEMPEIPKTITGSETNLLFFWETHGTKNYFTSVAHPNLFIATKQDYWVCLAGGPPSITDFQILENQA

Turning to ST2 ECD (from UniProt Q01638), the dissociation constant Kd with IL-33 (Homo sapiens) was 5 nM.

As for IL-1R1 D1-D2 (from UniProt P14778), the equilibrium dissociation constant (Kd) with IL-1α (Homo sapiens) was 7000 nM; with IL-1Ra (Homo sapiens), 28 nM; with IL-1β (Homo sapiens) [1], > 10000 nM.

With IL-1R1 D1-D3 (from UniProt P14778), the Kd in the assay with IL-1β (Homo sapiens) [2] was 2 nM.

B1: ST2 ectodomain, D1-D3 domains (sequence 19-323) (domain or fragment)
chain: KFSKQSWGLENEALIVRCPRQGKPSYTVDWYYSQTNKSIPTQERNRVFASGQLLKFLPAAVADSGIYTCIVRSPTFNRTGYANVTIYKKQSDCNVPDYLMYSTVSGSEKNSKIYCPTIDLYNWTAPLEWFKNCQALQGSRYRAHKSFLVIDNVMTEDAGDYTCKFIHNENGANYSVTATRSFTVKDEQGFSLFPVIGAPAQNEIKEVEIGKNANLTCSACFGKGTQFLAAVLWQLNGTKITDFGEPRIQQEEGQNQSFSNGLACLDMVLRIADVKEEDLLLQYDCLALNLHGLRRHTVRLSRKNP
modifications: biotinylated with Biotin-PEO4 linker (equimolar ratio)
B1: in the assay with IL-33 (residues 112-270), the dissociation constant Kd was 2.23 nM, the off-rate constant (koff) was 0.00115 s⁻¹ and the kon was 516000 M⁻¹ s⁻¹.

For B2, in assay [3], the Kd was 65.1 nM, the dissociation rate constant (koff) is 0.215 s⁻¹ and the kon is 3.3e+06 M⁻¹ s⁻¹.
